In patent US20240109963A1:

Legend:
[1] = molecular target: full-length human Claudin 18.2 on MIA PaCa-2 cells (MIA PaCa-2+ Claudin 18.2) (human) (UniProt P56856); test: cell-based or functional assay
[2] = molecular target: Claudin 18.2 on CHO cells (CHO+ Claudin 18.2) (UniProt P56856); test: flow cytometry on Claudin 18.2-expressing CHO cells (summary table)
[3] = molecular target: CD3 on Jurkat cells; test: flow cytometry on Jurkat cells, CD3 binding (T cell) (summary table)
CD3 on Jurkat cells, sequence (P07766 23-207, chain 1 of 3): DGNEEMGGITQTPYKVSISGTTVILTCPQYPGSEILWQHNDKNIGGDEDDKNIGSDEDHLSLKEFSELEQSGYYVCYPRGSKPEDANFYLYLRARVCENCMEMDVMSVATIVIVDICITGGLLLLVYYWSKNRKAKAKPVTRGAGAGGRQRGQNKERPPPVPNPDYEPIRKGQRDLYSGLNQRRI
CD3 on Jurkat cells, sequence (P09693 23-182, chain 2 of 3, further chain): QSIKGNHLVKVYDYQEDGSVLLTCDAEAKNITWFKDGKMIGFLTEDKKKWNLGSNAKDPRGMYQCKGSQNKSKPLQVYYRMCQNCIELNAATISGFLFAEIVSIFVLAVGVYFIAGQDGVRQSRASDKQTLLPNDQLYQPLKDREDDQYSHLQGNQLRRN
CD3 on Jurkat cells, sequence (P04234 22-171, chain 3 of 3, further chain): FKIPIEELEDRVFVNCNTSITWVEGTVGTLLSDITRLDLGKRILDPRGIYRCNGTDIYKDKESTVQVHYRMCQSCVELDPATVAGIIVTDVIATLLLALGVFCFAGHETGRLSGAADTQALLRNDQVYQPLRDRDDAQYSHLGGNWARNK

full-length human Claudin 18.2 on MIA PaCa-2 cells (MIA PaCa-2+ Claudin 18.2) (human), sequence (P56856 other isoform, or with tags, fused parts or gaps limits assumed): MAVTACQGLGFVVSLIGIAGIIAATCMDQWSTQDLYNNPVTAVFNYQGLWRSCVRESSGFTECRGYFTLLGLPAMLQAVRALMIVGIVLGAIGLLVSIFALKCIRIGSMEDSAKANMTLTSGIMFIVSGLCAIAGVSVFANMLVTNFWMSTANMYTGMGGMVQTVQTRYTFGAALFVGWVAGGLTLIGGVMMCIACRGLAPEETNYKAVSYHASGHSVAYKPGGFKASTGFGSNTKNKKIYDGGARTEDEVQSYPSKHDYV
Claudin 18.2 on CHO cells (CHO+ Claudin 18.2), sequence (P56856 other isoform, or with tags, fused parts or gaps limits assumed): as above

AMG910 analog (bispecific antibody)
T cell activation EC50 (CD69-positive cells) [1]: 0.0345 µg/mL | T cell activation EC50 (CD69-positive cells), unpurified supernatant [1]: 0.0577 µg/mL | EC50 [2]: 0.047 µg/mL | EC50 [3]: 0.485 µg/mL
